{"source": "patent US20030027314A1", "about": "(published 2003)", "binders": {"B1": {"name": "4heptadCREB (CREB with 4 heptad repeats appended at the amino terminus) (designed binder)", "chain": "ASMTGGQQMGRDPDLEQRAEELARENEELEKEAEELEQENAELENRVAVLENQNKTLIEELKALKDLYCHKSD", "notes": "also called 4hep-CREB"}, "B2": {"name": "4heptad-Fos (c-Fos with the basic region replaced by four acidic heptad repeats) (designed binder)", "chain": "MASMTGGQQMGRDPDLEQRAEELARENEELEKEAEELEQENAELEAETDQLEDEKSALQTEIANLLKEKEKLEFILAAHRPACKIP", "notes": "How the two entries relate is not explained; also called aFos; aZIP 4heptadFos"}, "B3": {"name": "0heptad-F (F zipper with the basic region deleted) (designed binder)", "chain": "ASMTGGQQMGRDPGGGTQQEVLELESRNDRLRKEVEQLERELDTLRGIFRQLPESSLVKAMGNCA", "notes": "expressed in E. coli; also called 0heptad-F (H); heterodimerizing zipper"}, "B4": {"name": "0heptadMax (dimerization domain of Max without an acidic extension) (other)", "chain": "ASMTGGQQMGRDPDLEELEDSFHSLRDSVPSLQGEKASRAQILDKATEYIQYMRRKNHTHQQDIDDLKRQNALLEQQVRALEKARSSAQLQT"}}, "key": {"CREB (unmodified)": {"biological_target": "T1, CREB (unmodified)", "T1 construct": "also called unmodified CREB", "T1 sequence (chain, from a related filing, looked up)": "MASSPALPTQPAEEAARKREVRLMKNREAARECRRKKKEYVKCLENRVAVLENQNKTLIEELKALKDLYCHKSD", "experiment": "thermal melting curve, mixture (FIG. 3)"}, "c-Jun (unmodified) [1]": {"biological_target": "c-Jun (unmodified)", "sequence (chain, from a related filing, as listed by the source)": "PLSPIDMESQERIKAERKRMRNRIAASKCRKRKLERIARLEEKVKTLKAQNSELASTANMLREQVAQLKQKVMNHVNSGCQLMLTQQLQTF", "experiment": "from thermal melts, Kd at 37 °C (FIG. 4)"}, "c-Jun (unmodified) [2]": {"biological_target": "c-Jun (unmodified)", "experiment": "thermal melting curve, mixture (FIG. 4)"}, "[3]": {"biological_target": "the molecule itself", "experiment": "CD thermal melt, homodimer, 150 mM KCl"}, "[4]": {"biological_target": "the molecule itself", "experiment": "homodimer, study of FIG. 9 (method not given)"}}, "data": [{"binder": "B1", "values": [{"measurement": "Tm", "setting": "CREB (unmodified)", "value": 53, "unit": "°C"}]}, {"binder": "B2", "values": [{"measurement": "Kd", "setting": "c-Jun (unmodified) [1]", "value": 6, "unit": "nM"}, {"measurement": "Tm", "setting": "c-Jun (unmodified) [2]", "value": 61, "unit": "°C"}]}, {"binder": "B3", "values": [{"measurement": "delta G at 25 °C", "setting": "[3]", "value": -8, "unit": "kcal/mol"}]}, {"binder": "B4", "values": [{"measurement": "Kd", "setting": "[4]", "value": 100, "unit": "nM"}]}]}
